# Reference: patent US20080268549A1, “THIOFLAVIN T METHOD FOR DETECTION OF AMYLOID POLYPEPTIDE FIBRIL AGGREGATION” (priority 2007, published 2008)
# Entries after “also recorded” stand apart in the source; their conditions may differ.
# Legend:
# Aβ (1-40) = target: T1, Aβ (1-40) (Homo sapiens, UniProt P05067); assay: Circular dichroism spectra of Aβ secondary structure
# T1 construct: β-amyloid peptide (1-40) can be obtained from Biosource; purchased Biosource (Camarillo, Calif.)
# Protocol: CD is routinely used to monitor changes in secondary structure (Wang et al., 2005). In order to verify that CLN does indeed cause a shift in secondary structure, a CD spectra of Aβ treated with CLN and control were taken at 24 and 48 h. For these experiments, a 10 μM solution of Aβ (1-40) (first solubilized in base as in previous examples) was prepared in 50 mM Tris buffer, pH 7.4, with and without 50 nM CLN and ThT. Circular dichroism (CD) spectra of the Aβ (1-40) peptide solutions were recorded using a Jasco J-715 CD spectropolarimeter at 25° C. using a bandwidth of 1.0 nm, a sensitivity of 0.5 nm and a recording speed of 50 nm/min. The results were plotted as ellipticity (mdeg) versus wavelength (nm).
# β-amyloid peptide (1-40) = target: T2, β-amyloid peptide (1-40) (Homo sapiens, UniProt P05067); assay: Thioflavin T fluorescence assay of Aβ fibril aggregation; type: biochemical; conditions: FIG. 5
# T2 construct: β-amyloid peptide (1-40) can be obtained from Biosource; purchased Biosource (Camarillo, Calif.)
# T2 sequence (P05067 672-711 limits assumed): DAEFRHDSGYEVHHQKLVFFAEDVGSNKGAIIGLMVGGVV
# Protocol: (1) Prepare a stock ThT solution (1 mg/ml; 3.14 mM) in distilled, deionized water, aliquot into small samples and store long term at −20° C. in the dark. Thaw frozen samples only once and discard the remainder. Add 1.6 μl of ThT solution to 1.0 ml of 50 mM Tris buffer, pH 7.4 to yield a final 5.0 μM ThT solution.
# (2) β-amyloid peptide (1-40) can be obtained from Biosource (Camarillo, Calif.), CLN from ReGen Therapeutics Plc (London, UK) and Thioflavin T from Sigma (St. Louis, Mo.). Prepare a stock solution of β-amyloid (by dissolving in 10 mM NaOH (0.5 mg/ml) and stored at −70° C. until used. Aβ in base is stable for at least 3 weeks frozen. Add 5.0 μl (2.5 μg) of β-amyloid stock solution to 1.0 ml of ThT/Tris buffer solution. It is preferable to avoid any contact with metal when preparing a amyloid solution since metal can oxidize the peptide.
# (3) Measure the fluorescence intensity of 1.0 ml of Aβ/ThT/Tris solution using an excitation wavelength of 440 nm and an emission wavelength of 482 nm. A control solution of Aβ/Tris solution, without ThT can be used as a control. The fluorescence intensity above the control is used as a measure of fibril content.
# (4) If the assay is intended to measure the change in Aβ aggregation and used to quantitate the effect of test agents, prepare a second sample containing the drug or agent as in step 2. Preincubate the samples for the appropriate length of time (usually days to weeks) required to yield a change in fluorescence intensity.
# Samples of Aβ in base were prepared as described in Example 1. ThT in Tris buffer was then added to the sample together with CLN at a concentration range of 2.5-10 nM and was preincubated for either 1 or 2 days and the fluorescence intensity measured following the above procedure. […] After a 2-day treatment with 10 nM CLN, approximately 50% of the Aβ fibrils are dissolved.
# T1 sequence (P05067 672-711 limits assumed): as above
Molecule,"effect of ThT on conformation of CLN treated Aβ samples by CD spectra (Aβ (1-40); 10 μM Aβ (1-40) with 50 nM CLN and ThT, FIG. 6B)","Aβ fibrils dissolved (β-amyloid peptide (1-40); 10 nM CLN, 2-day treatment)","decrease in Aβ aggregation (ThT fluorescence), maximum (β-amyloid peptide (1-40); 10 nM CLN, at 2 days) [%]","effect on Aβ aggregation (ThT fluorescence) (β-amyloid peptide (1-40); CLN 2.5-10 nM, preincubated 1 or 2 days)","effect on secondary structure (conformation) of Aβ by CD spectra (Aβ (1-40); 10 μM Aβ (1-40), 50 nM CLN, 50 mM Tris pH 7.4, 24 and 48 h, FIG. 6A)"
"Cc1ccc2c(c1)sc(-c1ccc(N(C)C)cc1)[n+]2C.[Cl-] [ThT, Thioflavin T]",did not have an effect,,,,
colostrinin [CLN],,approximately 50%,40,dose-dependent decrease,shift from β-sheet to α-helix; also recorded: shifted to a random-coil/α-helical rich conformation
